Assay results from the supplement of paper PMC12764529.
± gives the half width of the 95% confidence interval.

Assay: folding stability dG unfold (combined trypsin and chymotrypsin); higher = more stable
Summary of the method: (§1)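 Designed mini-proteins (under 80 residues, no cysteine) in a PA-tagged cDNA display construct were digested with trypsin and chymotrypsin. Each protease was used at 11 concentrations (threefold dilutions) plus a no-protease condition, followed by sequencing. K50 was inferred by Bayesian fitting of sequencing counts, and unfolding free energy was derived against a sequence-predicted unfolded-state K50 and a shared folded-state K50, per protease or combined. Only designs with AlphaFold2 dimer inter-PAE above 15 were kept.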

| Sequence | folding stability dG unfold [kcal/mol] |
| --- | --- |
| SAGGSAGGNTIMIPLPPNMPLDEVAKELMDAFPDYPIKDVEYERYGDRPMVTVRFPDGWKITIWSAGGSAGG [r6_492_TrROS] | 0.838 ± 0.12 |
| SAGGSAGGSAGSTVTLELEIDGVRITVKAELTPDGELRLTITEVEVLPPPPVVHPDDPEALKSAGGSAGGSA [r18_176_TrROS_Hall] | 1.33 ± 0.11 |
| SAGGSAGGSAGGAPLVEVEEVETRRVKDPATKRWYRRTRVRVRNKETGEWYELEFVEPLSAGGSAGGSAGGS [r10_535_TrROS_Hall] | 2.54 ± 0.048 |
| SAGGSMIFETLGSEKLIKEKAEERGLDLVEYSVEGNKFFALLKDPAGKLVLTYSDEASVKKLGLDLSKLSAG [r5_12_JUSTAS] | 0.299 ± 0.081 |
| SAGGSAGGSAGGMTLVIVVETEEQAEALAEELKKKGFEVTVERDEETNLLVVTVKVKPPPSAGGSAGGSAGG [r7_623_TrROS_Hall] | 3.66 ± 0.12 |
| SAGKKKKIKIKVTIVVPVKTKEDVELMKELAEKFAPELGKETAKKLGLPPEVEEIEVDVNILIVSPEELSAG [r5_436_TrMRF] | 1.88 ± 0.2 |
| SAGGSAGGSAGGPDDWVEVYFIMVSIKPKEVKPDPNGGAEYEFEIKISIFPFWIPPDDISAGGSAGGSAGGS [r10_524_TrROS] | 3.94 ± 0.22 |
| SAGGSAGGSAGGGELKELLKKNPGPLLLERPENTVSLILYDPKTGTYTVLTFSPTEPIPLSAGGSAGGSAGG [r7_84_JUSTAS] | 1.52 ± 0.14 |
| SAAEIDEDGTIRIVLSEEAVKNMSEEELKALAEELAKLLPPGAKVEIKIVKPKPVKEEKKLYDKDGKEVSAG [r14_312_TrROS_Hall] | 0.788 ± 0.15 |
| SGEFKPIATIDAKDGKPEAIIDSVKELLPDSGPVLVVLDLPDGPPKVNVIDPSTGKVREFVPGGNITIVPSA [r9_853_TrMRF] | 1.03 ± 0.056 |
| SAGGSAGGGPPNAPLKIYTDDGSVNLLNLDGQPLLVTVHPDATAEITLPDGTKITVPIPPGANLSAGGSAGG [r6_105_TrMRF] | 0.977 ± 0.069 |
| SAGGSAGGSGMMLKIEIPVEDPGSEEKAKKIAEELAKKLGLSPKEVKIKIKVIPKLPPEEILNSAGGSAGGS [r12_1066_JUSTAS] | 0.582 ± 0.22 |
| SAGGGYRAVAVFERPDGRREVVFIEFESEEEALREAEEIARRFGLRLKELRVYPVEPLPPVRPELAGSAGGS [r8_364_TrMRF] | 4.88 ± 0.09 |
| SAGGGPVVLTDPVKTEKSPDGTTYTLTREVFYDPSRGEPLKVRFTLTKVTNYPDGVKTETLEEKEVALSAGG [r13_596_JUSTAS] | 1.09 ± 0.16 |
| SAGGSAGGSAGGSSLASDPTVPPDEPRTVTVLEPEPGGRLRVVTYEETPAGRRPVSALLSAGGSAGGSAGGS [r10_288_JUSTAS] | 0.336 ± 0.21 |
| SAGGSATVEVATEPDGTVTVTTLETDPAEPRGTVTTTTVTVTTEPTPEPFLSSSTTTTTTATAPAPSAGGSA [r15_438_JUSTAS] | -0.0573 ± 0.059 |
| SAGGSAGGSASSLEESLRAELPEGKPARIEVKVELEKTPNGKLKVKEVKVTVTLPNGPVVGSAGGSAGGSAG [r3_247_JUSTAS] | 1.24 ± 0.11 |
| SAGGSAGGVVLEVEIPYESEEEAREKAEEVLKELGLPESAKITKIEFYPGPGEKKSVKVYIKLESAGGSAGG [r6_284_JUSTAS] | 1.83 ± 0.059 |
| SAGGSAGGSMKLEVEAELEVPLPNGKPKRFKVKFRVEPGESGVKVEVLEVDDPLVVEAIKKLFSAGGSAGGS [r12_743_TrMRF] | 2.65 ± 0.096 |
| SAGGSAGGSGMTEVVAEKKYPNEVILVTKEPDSYYIVKVTLKDGKVVEKENLGKISPDDPSILSAGGSAGGS [r12_154_JUSTAS] | -0.0617 ± 0.22 |
| SAGDGITVNPEKVTLTLDITLPDGTVLRVTVTLTPDGVEVTVEPVPVPPLPGATSPEEAEELLKQALASSAG [r5_272_TrMRF] | 2.34 ± 0.083 |

Assay: folding stability dG unfold from trypsin proteolysis; higher = more stable
Summary of the method: as §1

| Sequence | folding stability dG unfold [kcal/mol] |
| --- | --- |
| SAGGNKGKTIQINFMIDPEDPEMMIEKISKWLQAKGFKIESIEPRPVGNRWMYSATFRVPNGREITIWSAGG [r13_421_TrROS] | 1.76 ± 0.039 |
| SAGGSAGPKVEVELFPVPPFAPGSEFVLLVKTEDGDVILQRFRVKLEGNEPKIEPLGSIVLKPDELSAGGSA [r15_636_TrMRF] | 1.08 ± 0.036 |
| SAGGSAGGKYQEFEYMIMFPDGGMFRVKIEYSPNPGQVKIKIEFPGGEREITIPPGAPITIMPMSAGGSAGG [r6_927_TrROS] | 3.17 ± 0.23 |
| SAGGSAGGSAGGLPEDIELEVEPLEITLEDGSRVRILIARAPDPEIAAIDIEVFPPDDPKSAGGSAGGSAGG [r11_338_TrMRF] | 0.417 ± 0.11 |
| SAGGSAGGSPDAPPPPVNVVVPIPESELLSEEELPGGTTLRTYRLPDGTEITVRTAPDGRVTVDSAGGSAGG [r6_119_JUSTAS] | 3.01 ± 0.16 |
| SAGGMLPGLRPLLLAVLVPAEEPLEPEQVRELAEELRRELEEKGYGFAFRAIELEDFQLIIVDVVDPFSAGG [r13_442_TrMRF] | 2.54 ± 0.051 |
| SAGGSADEELLEKAKEALKKAEPPKIVVLNLPLPSGKELKVTLDPTTNKFTAEFPDGGSKTFDFPESAGGSA [r15_977_JUSTAS] | 1.05 ± 0.11 |
| SAGGSAGGDESSTPPVTTTSTTPLPDGSTVTVTSTTTYPDSTTTTTKTYSNGSTTTSTTTTPGSSAGGSAGG [r6_910_JUSTAS] | -0.0832 ± 0.051 |
| SAGGSAGGSAGGKTYTADEIKKIKKINGKWYVEIDGKTYEIPAKDIKIKKGDKIKIYPVSAGGSAGGSAGGS [r10_665_TrROS_Hall] | 1.45 ± 0.059 |
| SAGGSAGGSVLVIDSPEQIKKAIKEFKDNGAKSIHIRGPGRYWVIQIDPKEPKVKVERVPLGQSAGGSAGGS [r12_368_TrROS] | 0.639 ± 0.096 |
| SAPMKIVKKTDNTLYIYDKKTKKIVKITINDGTITVEEITYDKKTKEKKVETKTIKLSEEQLKKLKKLLSAG [r14_245_TrROS_Hall] | 1.54 ± 0.079 |
| SAGGSAGGMKVTLTPVSGEKYEIEVESEEEAKEKVEKLAKKLGIPGEVKVTIEKGDKTYELTIISAGGSAGG [r6_532_JUSTAS] | 2.98 ± 0.2 |
| SAGGSSMEVEIDTSKSTTTYTHPSGEKVATRSLVLTPPSPGDPLRFLNVEFEKLPDGSVVVKKIVGSAGGSA [r2_362_JUSTAS] | -0.338 ± 0.17 |
| SAGGPPPKWVKIDIFIFIYNPDNGRPIFIRITSIEIRLDENNELDVEIEFEVFDPNGKPVKYTMTFKSAGGS [r16_200_TrROS] | 3.81 ± 0.12 |
| SAGGSAGGKKKIKPPEVTIKIKNKDGSVFEAKITKVEYDEETKKLYLEIEIEVNGKKYKLTIELSAGGSAGG [r6_962_TrROS_Hall] | 2.87 ± 0.16 |
| SAGGSAGGSAGGSGPPSLPGVLVEIPEPLPGPEGTEFSDPKGYKYTYDPSNGKVLVERASAGGSAGGSAGGS [r4_78_JUSTAS] | -0.753 ± 0.17 |
| SAGGSEAEIVSVEFDEETGTISVLVRNSDGSLYRAEIRFERLPDGSLLVTIKVTLPDGKELTFVFPSAGGSA [r2_488_TrROS_Hall] | 3.94 ± 0.11 |
| SAGGSAGGSAMWVIRIWFPNGNKRTIPIPPNEKLTAEEILDEFRIPNGREMRILRVEIWPYSAGGSAGGSAG [r3_465_TrROS] | 1.967 ± 0.011 |
| SAGKIKKIEVKEVTNENGEKYKKITIEVEKEGKKVEIIVNKNGEKFIKVEKNGKTITLPLDEALELLKKSAG [r5_157_TrROS_Hall] | 1.23 ± 0.088 |
| SAGGSAGGSAGTMTAEEIAKALGAKVVEVYPDKVVIEIEVDGKKYRITINEDGEVTVEEVSAGGSAGGSAGG [r17_252_TrROS_Hall] | 2.62 ± 0.11 |
| SAGGSAGGFFHIEIEWRPVKLEDLPEEDAANGKELKPGDEIWVIVKIEIYPMPPPKFDKDGELNSAGGSAGG [r6_547_TrROS] | 2.23 ± 0.19 |

| Sequence | folding stability dG unfold [kcal/mol] |
| --- | --- |
| SAGGSAGGNTIMIPLPPNMPLDEVAKELMDAFPDYPIKDVEYERYGDRPMVTVRFPDGWKITIWSAGGSAGG [r6_492_TrROS] | 0.543 ± 0.034 |
| SAGGSAGGSAGSTVTLELEIDGVRITVKAELTPDGELRLTITEVEVLPPPPVVHPDDPEALKSAGGSAGGSA [r18_176_TrROS_Hall] | 1.54 ± 0.049 |
| SAGGSAGGSAGGAPLVEVEEVETRRVKDPATKRWYRRTRVRVRNKETGEWYELEFVEPLSAGGSAGGSAGGS [r10_535_TrROS_Hall] | 2.49 ± 0.025 |
| SAGGSMIFETLGSEKLIKEKAEERGLDLVEYSVEGNKFFALLKDPAGKLVLTYSDEASVKKLGLDLSKLSAG [r5_12_JUSTAS] | -0.265 ± 0.095 |
| SAGGSAGGSAGGMTLVIVVETEEQAEALAEELKKKGFEVTVERDEETNLLVVTVKVKPPPSAGGSAGGSAGG [r7_623_TrROS_Hall] | 4.04 ± 0.25 |
| SAGKKKKIKIKVTIVVPVKTKEDVELMKELAEKFAPELGKETAKKLGLPPEVEEIEVDVNILIVSPEELSAG [r5_436_TrMRF] | 1.48 ± 0.14 |
| SAGGSAGGSAGGPDDWVEVYFIMVSIKPKEVKPDPNGGAEYEFEIKISIFPFWIPPDDISAGGSAGGSAGGS [r10_524_TrROS] | 3.33 ± 0.26 |
| SAGGSAGGSAGGGELKELLKKNPGPLLLERPENTVSLILYDPKTGTYTVLTFSPTEPIPLSAGGSAGGSAGG [r7_84_JUSTAS] | 1.27 ± 0.056 |
| SAAEIDEDGTIRIVLSEEAVKNMSEEELKALAEELAKLLPPGAKVEIKIVKPKPVKEEKKLYDKDGKEVSAG [r14_312_TrROS_Hall] | 1.19 ± 0.083 |
| SGEFKPIATIDAKDGKPEAIIDSVKELLPDSGPVLVVLDLPDGPPKVNVIDPSTGKVREFVPGGNITIVPSA [r9_853_TrMRF] | 0.355 ± 0.037 |
| SAGGSAGGGPPNAPLKIYTDDGSVNLLNLDGQPLLVTVHPDATAEITLPDGTKITVPIPPGANLSAGGSAGG [r6_105_TrMRF] | 1.26 ± 0.072 |
| SAGGSAGGSGMMLKIEIPVEDPGSEEKAKKIAEELAKKLGLSPKEVKIKIKVIPKLPPEEILNSAGGSAGGS [r12_1066_JUSTAS] | 0.471 ± 0.077 |
| SAGGGYRAVAVFERPDGRREVVFIEFESEEEALREAEEIARRFGLRLKELRVYPVEPLPPVRPELAGSAGGS [r8_364_TrMRF] | 3.49 ± 0.089 |
| SAGGGPVVLTDPVKTEKSPDGTTYTLTREVFYDPSRGEPLKVRFTLTKVTNYPDGVKTETLEEKEVALSAGG [r13_596_JUSTAS] | 0.816 ± 0.081 |
| SAGGSAGGSAGGSSLASDPTVPPDEPRTVTVLEPEPGGRLRVVTYEETPAGRRPVSALLSAGGSAGGSAGGS [r10_288_JUSTAS] | -0.782 ± 0.95 |
| SAGGSATVEVATEPDGTVTVTTLETDPAEPRGTVTTTTVTVTTEPTPEPFLSSSTTTTTTATAPAPSAGGSA [r15_438_JUSTAS] | 0.138 ± 0.048 |
| SAGGSAGGSASSLEESLRAELPEGKPARIEVKVELEKTPNGKLKVKEVKVTVTLPNGPVVGSAGGSAGGSAG [r3_247_JUSTAS] | 0.572 ± 0.077 |
| SAGGSAGGVVLEVEIPYESEEEAREKAEEVLKELGLPESAKITKIEFYPGPGEKKSVKVYIKLESAGGSAGG [r6_284_JUSTAS] | 1.92 ± 0.06 |
| SAGGSAGGSMKLEVEAELEVPLPNGKPKRFKVKFRVEPGESGVKVEVLEVDDPLVVEAIKKLFSAGGSAGGS [r12_743_TrMRF] | 2.2 ± 0.034 |
| SAGGSAGGSGMTEVVAEKKYPNEVILVTKEPDSYYIVKVTLKDGKVVEKENLGKISPDDPSILSAGGSAGGS [r12_154_JUSTAS] | -0.0464 ± 0.065 |
| SAGDGITVNPEKVTLTLDITLPDGTVLRVTVTLTPDGVEVTVEPVPVPPLPGATSPEEAEELLKQALASSAG [r5_272_TrMRF] | 1.99 ± 0.09 |
